Experimental findings from paper PMC3521585 (Journal of medicinal chemistry, 2009) are described below.

Non-standard residues stand in square brackets, D forms with d. No end group written: not given here. *: point of attachment. NH(3,5-(CF3)2-benzyl) = FC(F)(F)c1cc(CN*)cc(C(F)(F)F)c1; βGlc = OC[C@H]1O[C@@H](*)[C@H](O)[C@@H](O)[C@@H]1O; Nle = CCCC[C@H](N)C(=O)O

Experiment [1] has as its target T1, human δ-opioid receptor (human, UniProt P41143 1-372). The experiment is described as follows: cell-based or functional assay.
The target in experiment [2] is T2, rat μ-opioid receptor (rat, UniProt P33535 1-398). The experiment is described as follows: cell-based or functional assay.
The target of experiment [3] is T2, rat μ-opioid receptor. Description: radioligand binding.
The target of experiment [4] is T1, human δ-opioid receptor. The experiment is described as follows: radioligand binding.
Experiment [5] addresses human NK1 receptor (human, UniProt P25103 1-407). The experiment is described as follows: radioligand binding.
In experiment [6] the target is rat NK1 receptor (rat, UniProt P14600 1-407). The experiment is described as follows: radioligand binding.

By Ki is commonly meant a measure of affinity in units of concentration, obtained from inhibition or displacement. Lower therefore signals higher affinity.

rat NK1 receptor, sequence (P14600 whole entry): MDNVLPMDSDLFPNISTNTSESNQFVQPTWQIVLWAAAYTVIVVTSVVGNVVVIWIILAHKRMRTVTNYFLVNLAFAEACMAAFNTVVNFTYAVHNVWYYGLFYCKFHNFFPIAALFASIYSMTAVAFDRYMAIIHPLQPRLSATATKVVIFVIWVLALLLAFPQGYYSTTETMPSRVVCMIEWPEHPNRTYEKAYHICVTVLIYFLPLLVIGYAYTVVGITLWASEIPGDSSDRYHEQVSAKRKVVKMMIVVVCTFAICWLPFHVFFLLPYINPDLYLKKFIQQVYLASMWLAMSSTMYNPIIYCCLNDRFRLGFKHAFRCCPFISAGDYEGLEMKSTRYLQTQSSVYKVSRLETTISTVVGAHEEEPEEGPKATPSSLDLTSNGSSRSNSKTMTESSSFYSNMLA
T1 sequence (P41143 whole entry, stated change not applied): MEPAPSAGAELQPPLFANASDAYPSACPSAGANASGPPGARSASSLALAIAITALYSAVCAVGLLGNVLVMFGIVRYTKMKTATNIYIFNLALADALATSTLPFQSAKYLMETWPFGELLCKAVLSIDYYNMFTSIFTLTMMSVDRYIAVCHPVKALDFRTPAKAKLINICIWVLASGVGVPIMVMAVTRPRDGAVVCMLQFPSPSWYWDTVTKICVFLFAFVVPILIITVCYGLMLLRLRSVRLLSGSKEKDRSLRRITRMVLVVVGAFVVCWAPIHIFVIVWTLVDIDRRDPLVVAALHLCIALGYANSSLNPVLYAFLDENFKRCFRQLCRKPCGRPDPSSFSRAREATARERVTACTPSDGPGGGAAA
human NK1 receptor, sequence (P25103 whole entry): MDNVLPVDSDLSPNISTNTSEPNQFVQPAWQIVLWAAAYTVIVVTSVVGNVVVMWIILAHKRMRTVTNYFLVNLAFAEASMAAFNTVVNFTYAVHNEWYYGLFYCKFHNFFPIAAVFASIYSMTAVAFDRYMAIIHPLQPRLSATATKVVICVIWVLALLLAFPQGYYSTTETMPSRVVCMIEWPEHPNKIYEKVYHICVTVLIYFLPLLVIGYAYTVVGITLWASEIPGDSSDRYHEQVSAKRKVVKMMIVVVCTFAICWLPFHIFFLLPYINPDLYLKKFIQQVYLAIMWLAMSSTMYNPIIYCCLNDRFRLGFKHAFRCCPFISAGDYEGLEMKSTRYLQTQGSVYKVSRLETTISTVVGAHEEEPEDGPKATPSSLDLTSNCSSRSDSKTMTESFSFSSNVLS
T2 sequence (P33535 whole entry): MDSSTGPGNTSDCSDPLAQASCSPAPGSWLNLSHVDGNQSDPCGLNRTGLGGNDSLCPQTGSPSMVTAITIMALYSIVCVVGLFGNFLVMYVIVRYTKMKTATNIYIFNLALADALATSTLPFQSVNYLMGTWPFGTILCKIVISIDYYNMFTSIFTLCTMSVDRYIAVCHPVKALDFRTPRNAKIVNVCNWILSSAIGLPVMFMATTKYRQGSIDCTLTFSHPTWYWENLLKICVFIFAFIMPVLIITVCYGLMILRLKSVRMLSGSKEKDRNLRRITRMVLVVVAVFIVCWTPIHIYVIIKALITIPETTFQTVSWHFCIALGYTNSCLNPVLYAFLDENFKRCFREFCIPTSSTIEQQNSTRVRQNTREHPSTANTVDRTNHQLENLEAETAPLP

B1: Tyr-D-Ala-Gly-Phe-Ser(Glc)-Pro-Leu-Trp-NH-3’,5’-Bzl(CF3)2 (peptide)
peptide: Y[dA]GFS(βGlc)PLW-{NH(3,5-(CF3)2-benzyl)}
With B1, in experiment [1], the “[35S]GTPγS binding, HN9.10 membranes expressing hDOR: EC50” value came out at 52 nM and the “[35S]GTPγS binding, HN9.10 membranes expressing hDOR: LogEC50” value is -7.29. Further, in experiment [2], the “[35S]GTPγS binding, HN9.10 membranes expressing rMOR: EC50” value was 180 nM and the “[35S]GTPγS binding, HN9.10 membranes expressing rMOR: LogEC50” value was -6.76. Besides, in experiment [3], the inhibition constant (Ki) was determined as 260 nM and the LogIC50 is -6.12. In experiment [4], this molecule displayed a Ki of 59 nM and a LogIC50 of -6.91. In experiment [5], this molecule showed a Ki of 0.0011 nM and a LogIC50 of -12.2. Further, in experiment [6], affinity was put at a Ki of 1.5 nM and the LogIC50 is -8.35.

B2: Tyr-D-Ala-Gly-Phe-Nle-Pro-Leu-Trp-NH-3’,5’-Bzl(CF3)2 (peptide)
chain: YAGFXPLW
modifications: D-Ala at 2; norleucine (Nle) at 5 (written X); C-terminal 3’,5’-bis(trifluoromethyl)benzyl amide (Trp-NH-3’,5’-Bzl(CF3)2)
As to B2, in experiment [1], the “[35S]GTPγS binding, HN9.10 membranes expressing hDOR: EC50” value was 5 nM; the “[35S]GTPγS binding, HN9.10 membranes expressing hDOR: Emax” value turned out to be 120%; the “[35S]GTPγS binding, HN9.10 membranes expressing hDOR: LogEC50” value is -8.3. In experiment [4], this molecule displayed a Ki of 1 nM and a LogIC50 of -8.67. In experiment [5], this molecule returned a Ki of 0.0028 nM and a LogIC50 of -11.6.

B3: Tyr-D-Ala-Gly-Phe-Nle-Pro-Ser(Glc)-Trp-NH-3’,5’-Bzl(CF3)2 (peptide)
chain: Y[dA]GF[Nle]PS(βGlc)W-{NH(3,5-(CF3)2-benzyl)}
Regarding B3, in experiment [1], the “[35S]GTPγS binding, HN9.10 membranes expressing hDOR: EC50” value was 7.9 nM; the “[35S]GTPγS binding, HN9.10 membranes expressing hDOR: Emax” value was found to be 64%; the “[35S]GTPγS binding, HN9.10 membranes expressing hDOR: LogEC50” value is -8.1. Moreover, in experiment [2], the “[35S]GTPγS binding, HN9.10 membranes expressing rMOR: EC50” value is 18 nM; the “[35S]GTPγS binding, HN9.10 membranes expressing rMOR: Emax” value came to 38%; the “[35S]GTPγS binding, HN9.10 membranes expressing rMOR: LogEC50” value was -7.75. In addition, in experiment [3], the Ki turned out to be 8 nM and the LogIC50 was -7.77. Further, the LogIC50 in experiment [4] was -8.1. Moreover, in experiment [6], affinity was put at a Ki of 14 nM and the LogIC50 is -7.3.

B4: Tyr-D-Ala-Gly-Phe-Nle-Pro-Leu-Ser(Glc)-Trp-NH-3’,5’-Bzl(CF3)2 (peptide)
chain: Y[dA]GF[Nle]PLS(βGlc)W-{NH(3,5-(CF3)2-benzyl)}
As for B4, in experiment [1], the “[35S]GTPγS binding, HN9.10 membranes expressing hDOR: Emax” value came to 49% and the “[35S]GTPγS binding, HN9.10 membranes expressing hDOR: LogEC50” value is -7.56. In experiment [2], the “[35S]GTPγS binding, HN9.10 membranes expressing rMOR: Emax” value came out at 50% and the “[35S]GTPγS binding, HN9.10 membranes expressing rMOR: LogEC50” value is -8.21. For the same molecule, the LogIC50 in experiment [3] is -7.22. In addition, in experiment [5], the LogIC50 is -9.93. The molecule also showed a LogIC50 in experiment [6] of -7.02.

B5: Tyr-D-Ala-Gly-Phe-Nle-Ser(Glc)-Leu-Trp-NH-3’,5’-Bzl(CF3)2 (peptide)
chain: Y[dA]GF[Nle]S(βGlc)LW-{NH(3,5-(CF3)2-benzyl)}
For the molecule B5, in experiment [1], the “[35S]GTPγS binding, HN9.10 membranes expressing hDOR: Emax” value worked out at 130%. Besides, in experiment [2], the “[35S]GTPγS binding, HN9.10 membranes expressing rMOR: EC50” value stood at 380 nM; the “[35S]GTPγS binding, HN9.10 membranes expressing rMOR: Emax” value was 81%; the “[35S]GTPγS binding, HN9.10 membranes expressing rMOR: LogEC50” value was -6.42. For the same molecule, in experiment [3], the Ki was determined as 3400 nM and the LogIC50 was -5.15. In experiment [5], this molecule came in with a Ki of 1.8 nM and a LogIC50 of -8.38.
